Blank lines part the entries; values can stand above or below the binder they belong to. *1 amine or outer side, *2 acyl side, *3 side chain or, on linkers, in order; H or OH if unused. Bridges are numbered along the chain shown (N, C = ends). Primed or numbered codes have the meaning given here. [ ]: non-standard residue; d: D form. The star is where a group is joined. Ttds″ = 1,13-diamino-4,7,10-trioxatridecan-succinamic acid (linker), O=C(CCC(=O)[*:2])NCCCOCCOCCOCCCN[*:1]; Ttds = 1,13-diamino-4,7,10-trioxatridecan-succinamic acid, NCCCOCCOCCOCCCNC(=O)CCC(=O)*; DOTA(In) = O=C1CN2CCN3CCN(CC(=O)*)CCN(CC2)CC(=O)[O][In]([O]1)[O]C(=O)C3; Ttds(3) = 1,13-diamino-4,7,10-trioxatridecan-succinamic acid linker; APAc″ = 4-amino-1-carboxymethylpiperidine, NC1CCN(CC(=O)*)CC1; dE(AGLU) = D-glutamic acid bearing 1-amino-1-deoxy-D-glucitol; Ttds(4) = 1,13-diamino-4,7,10-trioxatridecan-succinamic acid; Pro(trans-4-NH2) = O=C([C@@H]1C[C@@H](N[*:3])CN1[*:1])[*:2]; DOTA = O=C(O)CN1CCN(CC(=O)O)CCN(CC(=O)*)CCN(CC(=O)O)CC1; 3MeBn = 3-methyl-benzylidene (derived from 1,3-xylene); 2Lut = 2,6-lutidylidene bridge between two thiols; Trp(5-Cl) = N[C@@H](Cc1c[nH]c2ccc(Cl)cc12)C(=O)O; Pyridine(2,6-diCH2) = c1cc(C[*:1])nc(C[*:2])c1; 2Lut″ = 2,6-lutidylidene linking two thiols; APAc = 4-amino-1-carboxymethylpiperidine; mXylylene = c1cc(C[*:1])cc(C[*:2])c1; LuDOTA = DOTA Lutetium(III) complex; Glutaryl = O=C(CCCC(=O)[*:2])[*:1]; AGLU = 1-amino-1-deoxy-D-glucitol; Hyp = O=C(O)[C@@H]1C[C@@H](O)CN1; Cysteamide = C(CS[*:3])N[*:1]; Suc = O=C(CCC(=O)[*:2])[*:1]; N(CH2CH2)2NH = C1CN(*)CCN1; Api = NC1(C(=O)O)CCNCC1; Thp = NC1(C(=O)O)CCOCC1; Dap = NC[C@H](N)C(=O)O; NH(CH2)5NH2 = NCCCCCN*; DOTA′ = DOTA chelator; Aib = CC(C)(N)C(=O)O
Columns and labels:
[1] = molecular target: biotinylated extracellular domain of the human GIP receptor (bioGIPR) (human) (UniProt P48546); test: SPR single cycle kinetics, bioGIPR captured on chip; category A: pKD >9.0
[2] = molecular target: human Gastric Inhibitory Peptide Receptor (human) (UniProt P48546); test: FACS competition with GIP-057 on CHO-K1-hGIPR cells; pIC50 category A: >8.0
[3] = molecular target: biotinylated extracellular domain of the human GIP receptor (bioGIPR) (human) (UniProt P48546); test: SPR single cycle kinetics, bioGIPR captured on chip; category A: t1/2 >15 min

human Gastric Inhibitory Peptide Receptor (human), sequence (P48546 22-466 limits assumed): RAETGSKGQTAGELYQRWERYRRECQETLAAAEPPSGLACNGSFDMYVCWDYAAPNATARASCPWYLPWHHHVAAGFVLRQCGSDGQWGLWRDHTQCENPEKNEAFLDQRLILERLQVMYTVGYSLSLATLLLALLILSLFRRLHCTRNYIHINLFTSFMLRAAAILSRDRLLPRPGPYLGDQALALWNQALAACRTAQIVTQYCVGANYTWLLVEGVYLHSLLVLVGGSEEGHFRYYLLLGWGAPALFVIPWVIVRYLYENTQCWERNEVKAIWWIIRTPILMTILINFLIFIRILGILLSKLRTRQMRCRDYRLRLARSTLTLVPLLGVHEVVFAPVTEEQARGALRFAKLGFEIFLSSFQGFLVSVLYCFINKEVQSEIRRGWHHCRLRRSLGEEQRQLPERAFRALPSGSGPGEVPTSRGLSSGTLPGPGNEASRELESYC
biotinylated extracellular domain of the human GIP receptor (bioGIPR) (human), sequence (P48546 24-138 limits assumed): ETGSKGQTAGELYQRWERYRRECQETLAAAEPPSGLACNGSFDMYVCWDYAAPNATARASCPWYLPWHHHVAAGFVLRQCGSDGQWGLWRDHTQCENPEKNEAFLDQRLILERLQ

pKD [1]: > 9 pkd | pIC50 [2]: > 8 pic50 | t1/2 [3]: > 15 min
B1: DOTA-APAc-Asp-Trp-5Clw-Hyp-Glu-leu-[Dap(3MeBn)-Thp-Leu-Ile-AET] (peptide)
peptide: {DOTA-APAc″}-DW[Trp(5-Cl)][Hyp]E[dL][Dap][Thp]LI[Cysteamide]
modifications: linker (positions not given here) via mXylylene; not fully specified (bridges); printed as DOTA-APAc-Asp-Trp-5Clw-Hyp-Glu-leu-[Dap(3MeBn)-Thp-Leu-Ile-AET]

pKD [1]: > 9 pkd | pIC50 [2]: > 8 pic50 | t1/2 [3]: > 15 min
Binder: Ac-DW[Trp(5-Cl)][Pro(trans-4-NH2)](DOTA)E[dL]C[Thp]LIC-NH2 (linker 7-11 via 2Lut″) [Ac-Asp-Trp-5Clw-Tap(DOTA)-Glu-leu-[Cys(2Lut)-Thp-Leu-Ile-Cys]-NH2]

pKD [1]: > 9 pkd | pIC50 [2]: > 8 pic50 | t1/2 [3]: > 15 min
Binder: {DOTA(In)-Ttds}-DW[Trp(5-Cl)][Hyp]E[dL]C[Aib]LI[Cysteamide] (linker 7-11 via 3MeBn; also: DOTA as indium complex (InDOTA)) [InDOTA-Ttds-Asp-Trp-5Clw-Hyp-Glu-leu-[Cys(3MeBn)-Aib-Leu-Ile-AET]]

pKD [1]: > 9 pkd | pIC50 [2]: > 8 pic50 | t1/2 [3]: > 15 min
Binder: {LuDOTA-Ttds}-DW[Trp(5-Cl)]PE[dL]C[Aib]LI[Cysteamide] (linker 7-11 via mXylylene) [LuDOTA-Ttds-Asp-Trp-5Clw-Pro-Glu-leu-[Cys(3MeBn)-Aib-Leu-Ile-AET]]

pKD [1]: > 9 pkd | pIC50 [2]: > 8 pic50 | t1/2 [3]: > 15 min
B2: DOTA-APAc-Asp-Trp-5Clw-Hyp-Glu-leu-[Cys(2Lut)-Thp-Leu-Ile-AET] (peptide)
peptide: {DOTA-APAc″}-DW[Trp(5-Cl)][Hyp]E[dL]C[Thp]LI[Cysteamide]
modifications: linker (positions not given here) via Pyridine(2,6-diCH2); not fully specified (bridges); printed as DOTA-APAc-Asp-Trp-5Clw-Hyp-Glu-leu-[Cys(2Lut)-Thp-Leu-Ile-AET]

pKD [1]: > 9 pkd | pIC50 [2]: > 8 pic50 | t1/2 [3]: > 15 min
Binder: {DOTA(In)-APAc″}-DW[Trp(5-Cl)][Hyp]E[dL]C[Thp]LI[Cysteamide] (linker 7-11 via 2Lut; also: DOTA as indium complex (InDOTA)) [InDOTA-APAc-Asp-Trp-5Clw-Hyp-Glu-leu-[Cys(2Lut)-Thp-Leu-Ile-AET]]

pKD [1]: > 9 pkd | pIC50 [2]: > 8 pic50 | t1/2 [3]: > 15 min
B4: AGLU-Glutar-Asp-Trp-5Clw-Hyp-Glu-leu-[Cys(2Lut)-Apc(AGLU-Glutar)-Leu-Ile-Cys]-APAc-Lys(DOTA)-NH2 (peptide)
peptide: DWXXEXCXLIC
modifications: AGLU-Glutar; 5Clw; Hyp; D-leu; Apc(AGLU-Glutar); 2Lut bridge Cys-Cys; APAc; Lys(DOTA); C-term NH2

pKD [1]: > 9 pkd | pIC50 [2]: > 8 pic50 | t1/2 [3]: > 15 min
Binder: Suc-W[Trp(5-Cl)][Hyp]E[dL]C[Api](DOTA)LI[Cysteamide] (linker 6-10 via 2Lut) [HO-Succinyl-Trp-5Clw-Hyp-Glu-leu-[Cys(2Lut)-Apc(DOTA)-Leu-Ile-AET]]

The next lines start with the binder.

Binder: Suc-W[Trp(5-Cl)][Hyp]E[dL]C[Thp]LIC-{Ttds(3)-Lys(DOTA)-NH2} (linker 6-10 via Pyridine(2,6-diCH2)) [HO-Succinyl-Trp-5Clw-Hyp-Glu-leu-[Cys(2Lut)-Thp-Leu-Ile-Cys]-Ttds-Lys(DOTA)-NH2]
pKD [1]: > 9 pkd | pIC50 [2]: > 8 pic50 | t1/2 [3]: > 15 min

Binder: Suc-W[Trp(5-Cl)][Hyp]E[dL]C[Api]LIC-{APAc-Lys(DOTA)-NH2} (linker 6-10 via 2Lut) [HO-Succinyl-Trp-5Clw-Hyp-Glu-leu-[Cys(2Lut)-Apc-Leu-Ile-Cys]-APAc-Lys(DOTA)-NH2]
pKD [1]: > 9 pkd | pIC50 [2]: > 8 pic50 | t1/2 [3]: > 15 min

Binder: Suc-W[Trp(5-Cl)][Hyp]E[dL]C[Thp]LIC-{N(CH2CH2)2NH-DOTA′} (linker 6-10 via 2Lut) [HO-Succinyl-Trp-5Clw-Hyp-Glu-leu-[Cys(2Lut)-Thp-Leu-Ile-Cys]-PP-DOTA]
pKD [1]: > 9 pkd | pIC50 [2]: > 8 pic50 | t1/2 [3]: > 15 min

Binder: {DOTA(In)-APAc″}-DW[Trp(5-Cl)]PE[dL]C[Aib]LI[Cysteamide] (linker 7-11 via 3MeBn; also: DOTA as indium complex (InDOTA)) [InDOTA-APAc-Asp-Trp-5Clw-Pro-Glu-leu-[Cys(3MeBn)-Aib-Leu-Ile-AET]]
pKD [1]: > 9 pkd | pIC50 [2]: > 8 pic50 | t1/2 [3]: > 15 min

Binder: {DOTA-Ttds}-DW[Trp(5-Cl)][Pro(trans-4-NH2)]E[dL][Dap][Api]LI[Cysteamide] (linker 7-11 via Pyridine(2,6-diCH2)) [DOTA-Ttds-Asp-Trp-5Clw-Tap-Glu-leu-[Dap(2Lut)-Apc-Leu-Ile-AET]]
pKD [1]: > 9 pkd | pIC50 [2]: > 8 pic50 | t1/2 [3]: > 15 min

Binder: {DOTA-Ttds}-DW[Trp(5-Cl)][Pro(trans-4-NH2)]E[dL]C[Api]LI[Cysteamide] (linker 7-11 via Pyridine(2,6-diCH2)) [DOTA-Ttds-Asp-Trp-5Clw-Tap-Glu-leu-[Cys(2Lut)-Apc-Leu-Ile-AET]]
pKD [1]: > 9 pkd | pIC50 [2]: > 8 pic50 | t1/2 [3]: > 15 min

Binder: Suc-W[Trp(5-Cl)][Hyp]E[dL]C[Api](DOTA(In))LI[Cysteamide] (linker 6-10 via 2Lut; also: In complex of DOTA) [HO-Succinyl-Trp-5Clw-Hyp-Glu-leu-[Cys(2Lut)-Apc(InDOTA)-Leu-Ile-AET]]
pKD [1]: > 9 pkd | pIC50 [2]: > 8 pic50 | t1/2 [3]: > 15 min

Binder: {AGLU-Glutaryl-APAc}-DW[Trp(5-Cl)][Pro(trans-4-NH2)]E[dL]C[Api]LIC-{APAc-dE(AGLU)-NH2} (linker 7-11 via Pyridine(2,6-diCH2); not fully specified (residue 8))
pKD [1]: > 9 pkd | pIC50 [2]: > 8 pic50 | t1/2 [3]: > 15 min

Binder: Suc-W[Trp(5-Cl)][Hyp]E[dL]C[Thp]LIC-{APAc-Lys(DOTA)-NH2} (linker 6-10 via 2Lut) [HO-Succinyl-Trp-5Clw-Hyp-Glu-leu-[Cys(2Lut)-Thp-Leu-Ile-Cys]-APAc-Lys(DOTA)-NH2]
pKD [1]: > 9 pkd | pIC50 [2]: > 8 pic50 | t1/2 [3]: > 15 min

B3: AGLU-Glutar-Asp-Trp-5Clw-Hyp-Glu-leu-[Cys(2Lut)-Apc(InDOTA)-Leu-Ile-AET] (peptide)
peptide: {AGLU-Glutaryl}-DW[Trp(5-Cl)][Hyp]E[dL]C[Api](DOTA(In))LI[Cysteamide]
modifications: thioether (positions not given here) via Pyridine(2,6-diCH2); not fully specified (bridges); printed as AGLU-Glutar-Asp-Trp-5Clw-Hyp-Glu-leu-[Cys(2Lut)-Apc(InDOTA)-Leu-Ile-AET]; also: In complex of DOTA
pKD [1]: > 9 pkd | pIC50 [2]: > 8 pic50 | t1/2 [3]: > 15 min

Binder: Suc-W[Trp(5-Cl)][Hyp]E[dL]C[Thp]LIC-{NH(CH2)5NH2-DOTA′} (linker 6-10 via 2Lut) [HO-Succinyl-Trp-5Clw-Hyp-Glu-leu-[Cys(2Lut)-Thp-Leu-Ile-Cys]-Ape-DOTA]
pKD [1]: > 9 pkd | pIC50 [2]: > 8 pic50 | t1/2 [3]: > 15 min

Binder: {AGLU-Glutaryl-APAc}-DW[Trp(5-Cl)][Hyp]E[dL]C[Api](DOTA)LIC-{APAc-dE(AGLU)-NH2} (linker 7-11 via Pyridine(2,6-diCH2)) [AGLU-Glutar-APAc-Asp-Trp-5Clw-Hyp-Glu-leu-[Cys(2Lut)-Apc(DOTA)-Leu-Ile-Cys]-APAc-glu(AGLU)-NH2]
pKD [1]: > 9 pkd | pIC50 [2]: > 8 pic50 | t1/2 [3]: > 15 min

B5: DOTA-Ttds-Asp-Trp-5Clw-Pro-Glu-leu-[Cys(2Lut)-Apc-Leu-Ile-AET] (peptide)
peptide: {DOTA-Ttds″}-DW[Trp(5-Cl)]PE[dL]C[Api]LI-Cysteamide
modifications: not fully specified (bridges); printed as DOTA-Ttds-Asp-Trp-5Clw-Pro-Glu-leu-[Cys(2Lut)-Apc-Leu-Ile-AET]
pKD [1]: > 9 pkd | pIC50 [2]: > 8 pic50 | t1/2 [3]: > 15 min

Source: patent US20250296971A1, “GASTRIC INHIBITORY PEPTIDE RECEPTOR LIGANDS” (priority 2021, published 2025)
